The values below come from patent US20220389394A1 (Gilead, published 2022).

The target of assay [1] is T1, his-tagged recombinant human Flt3 receptor (Sino Biologicals) (human, UniProt P36888 27-541, limits assumed).
T1 construct: Bought protein; also called human recombinant FLT3; not shown: His tag
T1 sequence (looked up): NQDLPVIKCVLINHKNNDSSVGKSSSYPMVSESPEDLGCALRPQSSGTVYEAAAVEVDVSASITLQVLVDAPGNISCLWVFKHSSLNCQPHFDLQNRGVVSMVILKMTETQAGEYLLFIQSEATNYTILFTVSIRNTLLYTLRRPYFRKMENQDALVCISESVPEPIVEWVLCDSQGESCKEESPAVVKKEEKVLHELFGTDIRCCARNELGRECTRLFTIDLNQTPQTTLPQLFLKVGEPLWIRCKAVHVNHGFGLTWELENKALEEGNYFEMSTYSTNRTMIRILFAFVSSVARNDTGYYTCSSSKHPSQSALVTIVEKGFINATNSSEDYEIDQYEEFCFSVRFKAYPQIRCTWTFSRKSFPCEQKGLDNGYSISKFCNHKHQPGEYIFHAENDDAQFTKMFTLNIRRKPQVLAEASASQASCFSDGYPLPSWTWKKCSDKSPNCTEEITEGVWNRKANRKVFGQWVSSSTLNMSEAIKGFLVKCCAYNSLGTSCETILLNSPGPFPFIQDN
In words: ELISA; His-tagged recombinant human Flt3 on nickel plate, serially diluted Flt3L-Fc, anti-human (H+L)-HRP, 4PL fit. The text has this: Graph is a result of one experiment.
(§1) Signal was developed using TMB substrate then quenched prior to reading absorbance at 450 nm on a SpectraMax plate reader.
A general note: An ELISA detects its analyte on a solid surface through an enzyme-linked reagent.

Assay [2] has as its target T2, human FLT3 on the AML5 cell line (human, UniProt P36888 27-993).
T2 sequence (looked up): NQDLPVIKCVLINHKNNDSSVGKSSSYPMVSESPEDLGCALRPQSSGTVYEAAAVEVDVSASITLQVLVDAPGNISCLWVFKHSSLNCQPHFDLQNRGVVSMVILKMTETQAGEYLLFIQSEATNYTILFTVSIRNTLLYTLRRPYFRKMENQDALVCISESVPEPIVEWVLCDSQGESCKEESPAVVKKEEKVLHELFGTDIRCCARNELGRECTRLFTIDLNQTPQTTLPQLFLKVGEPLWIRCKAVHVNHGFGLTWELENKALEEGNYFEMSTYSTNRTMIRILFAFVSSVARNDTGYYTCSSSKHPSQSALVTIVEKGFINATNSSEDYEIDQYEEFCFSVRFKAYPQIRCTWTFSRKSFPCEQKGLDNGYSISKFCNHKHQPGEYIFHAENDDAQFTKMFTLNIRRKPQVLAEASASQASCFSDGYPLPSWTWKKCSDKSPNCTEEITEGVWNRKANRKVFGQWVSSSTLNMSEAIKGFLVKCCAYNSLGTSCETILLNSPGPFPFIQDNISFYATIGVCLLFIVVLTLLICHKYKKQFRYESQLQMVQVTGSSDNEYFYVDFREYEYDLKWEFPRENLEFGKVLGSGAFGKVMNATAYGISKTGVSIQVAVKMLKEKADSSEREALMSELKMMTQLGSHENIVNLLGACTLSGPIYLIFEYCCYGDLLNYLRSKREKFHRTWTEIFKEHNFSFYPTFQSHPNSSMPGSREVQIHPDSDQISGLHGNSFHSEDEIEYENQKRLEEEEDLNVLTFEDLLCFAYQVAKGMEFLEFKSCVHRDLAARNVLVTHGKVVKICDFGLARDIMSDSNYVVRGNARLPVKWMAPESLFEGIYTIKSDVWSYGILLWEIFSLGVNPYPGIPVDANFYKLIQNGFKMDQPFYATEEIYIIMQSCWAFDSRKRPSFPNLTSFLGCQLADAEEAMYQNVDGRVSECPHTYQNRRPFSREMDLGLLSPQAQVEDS
In words: cell-based or functional assay.

For assay [3], the target named is T3, recombinant human FcRn (human, UniProt P55899 24-297; P61769 21-119, limits assumed).
T3 construct: a beta-2-microglobulin chain is not mentioned; also called human recombinant FcRn
Description: ELISA; recombinant human FcRn coated, serially diluted test article, anti-human (H+L)-HRP, 4PL fit; estimate, no saturating signal. The procedure: (§2) Graph is a result of one experiment. Experiment was performed in duplicate. Error bars represent standard deviation of the mean values.
(§3) Signal was developed using TMB substrate then quenched prior to reading absorbance at 450-650 nm on a SpectraMax plate reader.

The target in assay [4] is T2, human FLT3 on the AML5 cell line. Description: cell-based or functional assay. This is another data set of the same source.
The target in assay [5] is T3, recombinant human FcRn. Description: ELISA; recombinant human FcRn coated, serially diluted test article, anti-human (H+L)-HRP, 4PL fit. How it is done:
as §2, §3

For assay [6], the target named is T2, human FLT3 on the AML5 cell line. In words: cell-based or functional assay. This is another data set of the same source.
Assay [7] has as its target T4, recombinant human C1q protein (Fitzgerald) (human, UniProt P02745 23-245; P02746 28-253; P02747 29-245, limits assumed).
T4 construct: also called human recombinant complement protein, C1q
Description: ELISA, test article immobilized, C1q added; text: devoid of C1q binding ability.

Assay [8] addresses T2, human FLT3 on the AML5 cell line. Description: cell-based or functional assay. The source holds these as a separate data set.
The target is the same in assay [9]. Description: cell-based or functional assay. The source holds these as a separate data set.
For assay [10], the target named is T1, his-tagged recombinant human Flt3 …. In words: ELISA; His-tagged recombinant human Flt3 on nickel plate, serially diluted Flt3L-Fc, anti-human (H+L)-HRP, 4PL fit. How it is done:
as §2, §1
The source holds these as a separate data set.

Assay [11] deals with T2, human FLT3 on the AML5 cell line. Description: cell-based or functional assay. The source holds these as a separate data set.

Positions count from the first letter of the chain named. Names and notes keep the numbering of the source. Read-outs that look alike come from different tables or passages of the source.

T3 sequence (P55899 24-297 limits assumed, chain 1 of 2): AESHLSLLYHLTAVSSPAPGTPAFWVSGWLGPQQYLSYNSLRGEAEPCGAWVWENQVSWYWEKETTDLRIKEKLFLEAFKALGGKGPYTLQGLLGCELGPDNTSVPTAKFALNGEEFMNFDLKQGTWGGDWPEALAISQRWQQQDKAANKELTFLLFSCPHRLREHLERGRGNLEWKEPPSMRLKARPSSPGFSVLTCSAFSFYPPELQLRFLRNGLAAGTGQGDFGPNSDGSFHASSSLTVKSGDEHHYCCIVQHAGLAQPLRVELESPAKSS
T3 sequence (P61769 21-119 limits assumed, chain 2 of 2): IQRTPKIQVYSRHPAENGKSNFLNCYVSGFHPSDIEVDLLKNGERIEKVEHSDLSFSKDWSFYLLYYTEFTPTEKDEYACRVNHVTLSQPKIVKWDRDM
T4 sequence (P02745 23-245 limits assumed, chain 1 of 3): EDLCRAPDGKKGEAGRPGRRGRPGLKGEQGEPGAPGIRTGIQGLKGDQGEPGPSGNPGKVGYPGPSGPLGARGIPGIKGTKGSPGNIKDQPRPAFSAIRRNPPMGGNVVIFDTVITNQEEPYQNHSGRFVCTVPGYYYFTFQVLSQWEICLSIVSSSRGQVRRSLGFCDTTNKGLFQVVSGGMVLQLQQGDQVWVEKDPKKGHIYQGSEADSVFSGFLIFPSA
T4 sequence (P02746 28-253 limits assumed, chain 2 of 3): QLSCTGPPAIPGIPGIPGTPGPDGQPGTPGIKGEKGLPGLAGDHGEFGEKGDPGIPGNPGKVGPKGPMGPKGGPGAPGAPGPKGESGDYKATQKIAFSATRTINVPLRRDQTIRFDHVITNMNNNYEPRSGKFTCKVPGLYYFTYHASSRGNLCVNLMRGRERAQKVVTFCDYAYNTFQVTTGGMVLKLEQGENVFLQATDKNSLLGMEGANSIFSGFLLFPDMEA
T4 sequence (P02747 29-245 limits assumed, chain 3 of 3): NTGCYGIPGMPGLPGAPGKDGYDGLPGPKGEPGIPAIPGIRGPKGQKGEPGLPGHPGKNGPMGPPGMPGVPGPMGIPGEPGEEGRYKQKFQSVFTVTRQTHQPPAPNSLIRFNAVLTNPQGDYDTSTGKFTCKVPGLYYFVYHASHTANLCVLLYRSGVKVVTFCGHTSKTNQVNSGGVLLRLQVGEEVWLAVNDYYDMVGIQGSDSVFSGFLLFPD

B1: human FLT3-ligand human hingeless IgG1 fusion protein (SEQ ID NO:1) (Fc fusion)
chain: TQDCSFQHSPISSDFAVKIRELSDYLLQDYPVTVASNLQDEELCGGLWRLVLAQRWMERLKTVAGSKMQGLLERVNTEIHFVTKCAFQPPPSCLRFVQTNISRLLQETSEQLVALKPWITRQNFSRCLELQCQPDSSTLPPPWSPRPLEATAPTAPQGGPSVFLFPPKPKDTLMISRTPEVTCVVVDVSHEDPEVKFNWYVDGVEVHNAKTKPREEQYNSTYRVVSVLTVLHQDWLNGKEYKCKVSNKALPAPIEKTISKAKGQPREPQVYTLPPSREEMTKNQVSLTCLVKGFYPSDIAVEWESNGQPENNYKTTPPVLDSDGSFFLYSKLTVDKSRWQQGNVFSCSVMHEALHNHYTQKSLSLSPGK
notes: also called FLT3L ECD-hingeless hG1; hFLT3L ECD
Consider B1, for which the half-maximal effective concentration (EC50) is 0.12 nM in [1], approximately 151 nM with recombinant human FcRn [3], 2330 nM with recombinant human FcRn [5] and 0.81 nM in assay [10]. Besides, the “EC50 (nM), AML5 proliferation” value in assay [2] worked out at 0.08 nM; in [4], 0.04 nM; in assay [6], 0.05 nM; in [8] it was 0.034 nM; in assay [9], 0.078 nM. Besides, in assay [7], the binding result was “no binding (tested: 94 nM (highest of the titration))”.

B2: human FLT3-ligand (K84E) human hingeless IgG1 fusion protein (SEQ ID NO:23) (Fc fusion)
chain: B1 chain with K84E
Turning to B2, the “potency in AML5 proliferation, fold against SEQ ID NO:1” value (“potency … fold against SEQ ID NO:1” for short) in assay [11] was approximately 2.5 fold. Moreover, the “EC50 (nM), AML5 proliferation” value in assay [8] came to 0.013 nM.

B3: human FLT3-ligand (H8Y+K84E) human hingeless IgG1 fusion protein (SEQ ID NO:24) (Fc fusion)
chain: B1 chain with H8Y, K84E
Turning to B3, the “potency … fold against SEQ ID NO:1” value in assay [11] is approximately 2.5 fold. Moreover, the “EC50 (nM), AML5 proliferation” value in assay [8] was 0.013 nM.

B4: human FLT3-ligand human IgG1 fusion protein (SEQ ID NO:21) (Fc fusion)
chain: B1 chain with L273K, T288S, P317V, F327R, Y329A, K331Y
B4: in [4], the “EC50 (nM), AML5 proliferation” value was found to be 0.035 nM.

B5: human FLT3-ligand (H8Y) human hingeless IgG1 fusion protein (SEQ ID NO:22) (Fc fusion)
chain: B1 chain with H8Y
Take B5: the “potency … fold against SEQ ID NO:1” value in assay [11] is approximately 2.5 fold. Moreover, the “EC50 (nM), AML5 proliferation” value in assay [8] was 0.014 nM.

B6: human FLT3-ligand (S128A/S151A) human hingeless IgG1 fusion protein (SEQ ID NO:5) (Fc fusion)
chain: B1 chain with S102A, S125A
notes: also called Aglyco-FLT3L ECD (S128A/S151A) hingeless hG1
Regarding B6, the EC50 was 0.11 nM in assay [1] and approximately 133 nM with recombinant human FcRn [3]. Also, the “EC50 (nM), AML5 proliferation” value in assay [2] was determined as 0.078 nM. In assay [7], the binding result is listed as “no binding (tested: 94 nM (highest of the titration))”.

B7: human FLT3-ligand (Δ5 amino acid) human hingeless IgG1 fusion protein (SEQ ID NO:2) (Fc fusion)
chain: TQDCSFQHSPISSDFAVKIRELSDYLLQDYPVTVASNLQDEELCGGLWRLVLAQRWMERLKTVAGSKMQGLLERVNTEIHFVTKCAFQPPPSCLRFVQTNISRLLQETSEQLVALKPWITRQNFSRCLELQCQPDSSTLPPPWSPRPLEATAGGPSVFLFPPKPKDTLMISRTPEVTCVVVDVSHEDPEVKFNWYVDGVEVHNAKTKPREEQYNSTYRVVSVLTVLHQDWLNGKEYKCKVSNKALPAPIEKTISKAKGQPREPQVYTLPPSREEMTKNQVSLTCLVKGFYPSDIAVEWESNGQPENNYKTTPPVLDSDGSFFLYSKLTVDKSRWQQGNVFSCSVMHEALHNHYTQKSLSLSPGK
notes: also called FLT3L ECD (Δ C-term 5aa (PTAPQ)) - hingeless hG1
As for B7, the EC50 in assay [1] is 0.13 nM; with recombinant human FcRn [3] it was approximately 300 nM. Besides, the “EC50 (nM), AML5 proliferation” value in assay [2] turned out to be 0.083 nM. For the same molecule, the binding result in assay [7] was “no binding (tested: 94 nM (highest of the titration))”.

B8: mouse FLT3-ligand mouse IgG2a (LALA-PG) fusion protein (SEQ ID NO:19) (Fc fusion)
chain: TPDCYFSHSPISSNFKVKFRELTDHLLKDYPVTVAVNLQDEKHCKALWSLFLAQRWIEQLKTVAGSKMQTLLEDVNTEIHFVTSCTFQPLPECLRFVQTNISHLLKDTCTQLLALKPCIGKACQNFSRCLEVQCQPDSSTLLPPRSPIALEATELPEPRGPTIKPCPPCKCPAPNAAGGPSVFIFPPKIKDVLMISLSPIVTCVVVDVSEDDPDVQISWFVNNVEVHTAQTQTHREDYNSTLRVVSALPIQHQDWMSGKEFKCKVNNKDLGAPIERTISKPKGSVRAPQVYVLPPPEEEMTKKQVTLTCMVTDFMPEDIYVEWTNNGKTELNYKNTEPVLDSDGSYFMYSKLRVEKKNWVERNSYSCSVVHEGLHNHHTTKSFSRTPGK
As to B8, the “EC50 (nM), AML5 proliferation” value in assay [9] worked out at 0.171 nM.

B9: mouse FLT3-ligand mouse IgG2a (C136S LALA-PG) fusion protein (SEQ ID NO:20) (Fc fusion)
chain: B8 chain with C109S
Consider B9, for which, in assay [9], the “EC50 (nM), AML5 proliferation” value stood at 0.115 nM.

B10: human FLT3-ligand (Δ10 amino acid) human hingeless IgG1 fusion protein (SEQ ID NO:7) (Fc fusion)
chain: TQDCSFQHSPISSDFAVKIRELSDYLLQDYPVTVASNLQDEELCGGLWRLVLAQRWMERLKTVAGSKMQGLLERVNTEIHFVTKCAFQPPPSCLRFVQTNISRLLQETSEQLVALKPWITRQNFSRCLELQCQPDSSTLPPPWSPRPGGPSVFLFPPKPKDTLMISRTPEVTCVVVDVSHEDPEVKFNWYVDGVEVHNAKTKPREEQYNSTYRVVSVLTVLHQDWLNGKEYKCKVSNKALPAPIEKTISKAKGQPREPQVYTLPPSREEMTKNQVSLTCLVKGFYPSDIAVEWESNGQPENNYKTTPPVLDSDGSFFLYSKLTVDKSRWQQGNVFSCSVMHEALHNHYTQKSLSLSPGK
Turning to B10, the EC50 was 0.12 nM in [1] and approximately 158 nM with recombinant human FcRn [3]. Moreover, the “EC50 (nM), AML5 proliferation” value in assay [2] was determined as 0.071 nM. Besides, in [7], the binding result is “no binding (tested: 94 nM (highest of the titration))”.

In general, EC50 refers to the concentration that produces a half-maximal response.
